Laboratory results: patent US20190092852A1 (Genentech, published 2019)
Several values for one entry are separate records, joined by “and”; a condition that tells them apart may be missing. Equal values may be shown once.

T1: cyno IL-33 N-His (cynomolgus monkey)
T1 chain: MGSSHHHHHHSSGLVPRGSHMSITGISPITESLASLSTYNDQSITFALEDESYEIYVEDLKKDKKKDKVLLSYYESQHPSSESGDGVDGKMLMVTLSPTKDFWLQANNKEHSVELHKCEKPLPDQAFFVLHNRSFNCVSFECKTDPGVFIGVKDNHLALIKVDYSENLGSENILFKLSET

T2: biotinylated cyno IL-33 (cynomolgus monkey, UniProt A0A2K5W3I1 112-269, biotin-labeled with EZ-LINK NHS-PEG4-Biotin)
T2 construct: also called biotin-cyIL-33
T2 sequence: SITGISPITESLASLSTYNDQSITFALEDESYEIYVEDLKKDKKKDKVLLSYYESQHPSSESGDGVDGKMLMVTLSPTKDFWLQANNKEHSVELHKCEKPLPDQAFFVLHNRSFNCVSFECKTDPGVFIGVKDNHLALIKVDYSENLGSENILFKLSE

T3: human IL-33 (Genentech, huIL33.his) (human, UniProt O95760 112-270)
T3 sequence (looked up): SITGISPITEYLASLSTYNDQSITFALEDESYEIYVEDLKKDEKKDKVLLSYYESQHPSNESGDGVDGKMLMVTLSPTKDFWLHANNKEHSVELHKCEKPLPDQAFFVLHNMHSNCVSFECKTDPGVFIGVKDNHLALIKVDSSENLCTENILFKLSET

T4: cyno IL-33 (cell-based blocking assay of Example 2) (cynomolgus monkey, UniProt A0A2K5W3I1 95-269)
T4 sequence: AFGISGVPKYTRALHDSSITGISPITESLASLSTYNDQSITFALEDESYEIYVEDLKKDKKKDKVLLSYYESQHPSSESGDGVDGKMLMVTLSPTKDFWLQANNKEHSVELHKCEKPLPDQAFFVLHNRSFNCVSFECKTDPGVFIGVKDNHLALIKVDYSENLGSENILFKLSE

T5: human IL-33 (cell-based blocking assay of Example 2) (human, UniProt O95760 112-270)
T5 sequence (looked up): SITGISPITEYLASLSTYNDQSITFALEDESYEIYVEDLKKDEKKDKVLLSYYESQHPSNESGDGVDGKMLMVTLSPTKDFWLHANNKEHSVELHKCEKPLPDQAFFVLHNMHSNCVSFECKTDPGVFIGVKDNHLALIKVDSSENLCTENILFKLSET

T6: cynomolgus monkey N-terminal 6-His-tagged and C-terminal Avi-tagged IL-33 (S112-T270) (cynomolgus monkey)
T6 chain: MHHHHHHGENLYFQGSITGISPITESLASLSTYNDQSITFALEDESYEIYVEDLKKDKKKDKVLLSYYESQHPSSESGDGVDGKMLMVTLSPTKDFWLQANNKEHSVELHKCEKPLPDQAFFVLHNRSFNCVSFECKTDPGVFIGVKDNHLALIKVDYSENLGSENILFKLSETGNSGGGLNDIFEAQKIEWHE


Experiments:
[1] = biological target: T1, cyno IL-33 N-His; assay: SPR Biacore T200, 25 C
Experimental: (§1) The binding kinetics of the anti-IL-33 antibody 10C12.38.H6.87Y.58I IgG4 and each anti-IL-33 antibody listed in Table 5 (RG1-RG20) to IL-33 were measured using surface plasmon resonance (SPR) on a BIACORE® T200 instrument (GE Healthcare). Anti-human Fc or anti-murine Fc (GE Healthcare, #BR-1008-39 or BR-1008-38, respectively) was immobilized on a CM5 sensor chip via amine-based coupling according to the manufacturer's protocol. Surfaces were used to capture monoclonal human IgG4 and monoclonal murine IgGs for kinetic studies. Antibody binding was measured to human IL-33 (R&D systems, #3625-IL-010/CF) and cyno IL-33 N-His (SEQ ID NO: 317) (Genentech, Inc.). A three-fold concentration series of cytokine with a range of 3.7 to 100 nM was used for the experiments. Sensograms for binding of IL-33 were recorded using an injection time of 4 min with a flow rate of 30 μl/minute with a running buffer of 0.01 M N-(2-Acetamido)iminodiacetic acid (ADA) pH 7.4, 0.15 M NaCl, 3 mM EDTA, and 0.05% TWEEN®-20. After injection, disassociation of the ligand from the antibody was monitored for 10 min in running buffer. The surface was regenerated in between cycles with an injection of 3 M magnesium chloride or Glycine-HCl pH 1.7. All binding experiments were performed at a temperature of 25′C and 37° C. After subtraction of a blank which contained running buffer only, sensograms observed for IL-33 binding to anti-IL-33 antibodies were analyzed using a 1:1 Langmuir binding model with software supplied by the manufacturer to calculate the kinetics and binding constants, including the dissociation constant (KD). Dissociative half-lives (t_{1/2}) were calculated from the kinetic rate constants. KD (M)=koff/kₒₙ and t_{1/2} (min)=ln(2)/(60*koff). […] In Tables 6-9, *IC indicates the result is inconclusive due to weak capture of antibody was observed, leading to poor binding data.

[2] = biological target: T2, biotinylated cyno IL-33; assay: competitive ELISA, biotin-cyIL-33 to coated hST2-Fc
Experimental: The ability of the anti-IL-33 antibody 10C12.38.H6.87Y.58I IgG4 and each anti-IL-33 antibody listed in Table 5 (RG1-RG20) to block either human IL-33 or cyno IL-33 binding to human ST2 receptor was tested in a competitive binding ELISA. Briefly, 1 μg/ml of recombinant human ST2-Fc chimera protein prepared in coating buffer (50 mM sodium carbonate, pH 9.6) was coated on a 384-well MAXISORP® plate (Nalgene Nunc International; Rochester, N.Y.) and incubated overnight at 4° C. On the next day, non-specific binding was blocked with PBS containing 0.5% (w/v) solution of bovine serum albumin (BSA). Fixed concentrations of biotinylated human or cyno IL-33 prepared in assay buffer (25 mM PBS, pH 7.2, 0.1% BSA, 0.05% TWEEN®-20) were mixed with an equal volume of serially-diluted anti-IL-33 antibodies or assay buffer alone and incubated for 1 h at room temperature. The final assay concentrations of biotinylated human IL-33 or cyno IL-33 were 20 pM and 45 pM, respectively, and the final assay concentration of each antibody ranged from 0-300 nM. The pre-mixed solutions were added to the ST2-Fc coated plate and incubated for 1 h at room temperature. The binding of biotinylated IL-33 to coated ST2-Fc was detected by the sequential addition of Streptavidin Poly-HRP80 (Fitzgerald; Buckinghamshire, UK) and 3,3′,5,5′-tetramethyl benzidine (TMB) Microwell Peroxidase Substrate System (KPL; Gaithersburg, Md.). The absorbance (450 nm) was recorded using a […] ASCENT® plate reader (Thermo Scientific; Rockford, Ill.). The binding activity (%) of biotin-IL-33 to ST2 in the presence of anti-IL-33 was plotted as a function of antibody concentration. The data generated were fitted to a four-parameter equation to determine IC₅₀ values for each antibody (FIGS. 25A and 25B) using Prism software (Graphpad Software; La Jolla, Calif.). The maximum blocking (%) of each antibody was calculated as the ratio of the reduction in signal measured in the presence of antibody relative to the difference between the signal with IL-33 alone and background measurements.

[3] = biological target: T1, cyno IL-33 N-His; assay: SPR Biacore T200, 37 C
Experimental: as §1

[4] = biological target: T3, human IL-33 (Genentech, huIL33.his); assay: SPR Biacore
[5] = biological target: T4, cyno IL-33 (cell-based blocking assay …); assay: cell-based or functional assay
[6] = biological target: T5, human IL-33 (cell-based blocking assay …); assay: cell-based or functional assay
[7] = biological target: T6, cynomolgus monkey N-terminal …; assay: cell-based or functional assay

Row | Kd [1] [nM] | koff [1] [s⁻¹] | kon [1] [M⁻¹ s⁻¹] | t1/2 [1] [min] | IC50 [2] [nM] | Maximum Blocking [2] [%] | Kd [3] [nM] | koff [3] [s⁻¹] | kon [3] [M⁻¹ s⁻¹] | t1/2 [3] [min] | Kd [4] [nM] | Cell assay (cy) IC90 [5] | Cell assay (hu) IC90 [6] | IC50; SEAP reporter (OD 620), HEK-BLUE IL-33/IL-1beta cells, 5 pM cyno IL-33 (5pM cIL-33-Nhis) [7] [M] | Binder
1 | 2.63 | 0.000557 | 212000 | 21 | 150 | 27 | 5.82 | 0.00221 | 380000 | 5 |  |  |  |  | H4H9670P (antibody, V domains shown) VH: EVQLVESGGGLVQPGGSLRLSCAASGFTLSSYAMSWVRQAPGKGLEWVSAISGSGGSTYYADSVKGRFTISRDNSKNSLYLQLNSLRAEDTAVYYCAKTLYTTSWYGGFQHWGQGTLVTVSS VL: DIQMTQSPSSVSASIGDRVTITCRASQGISSWLAWYQQKPGKVPKLLIYAASSLQSGFPSRFSGSGSGTDFTLTISSLQPEDFATYYCQQTHSFPWTVGQGTKVEIK
2 |  |  |  |  |  |  |  |  |  |  | 0.795 | > 1.5 µg/mL and > 9.9 nM | 0.0128 µg/mL and 0.84 nM |  | 9F6.34.E10 (antibody, V domains shown, Humanized variant of 9F6) VH: EVQLVQSGAEVKKPGASVKVSCKASGYTFTSYWINWVRQAPGQGLEWIGRIAPGSGFISYNELFKDRVTITRDTSTSTAYLELSSLRSEDTAVYYCAREFYYGSFYGGFAYWGQGTLVTVSS VL: DIQMTQSPSSLSASVGDRVTITCHASQNIHVWLSWYQQKPGKAPKLLIYKASTLHTGVPSRFSGSGSGTDFTLTISSLQPEDFATYYCQQGQSSPLTFGQGTKVEIK
3 |  |  |  |  |  |  |  |  |  |  | 336 |  |  |  | 2B6.54S (antibody, V domains shown, Humanized variant of 2B6) VH: EVQLVQSGAEVKKPGASVKVSCKASGYTFSDYNMNWVRQAPGQGLESIGDINPKSGDTFYNQNFKDRATLTIDKSTSTAYLELSSLRSEDTAVYYCARHYYYGSSYGGFVYWGQGTLVTVSS VL: DIQMTQSPSSLSASVGDRVTITCHASQNINVWLSWYQQKPGKNPKLLIYAASKLHTGVPSRFSGSGSGTDFTLTISSLQPEDFATYYCQQGQSYPLTFGQGTKVEIK
4 |  |  |  |  |  |  |  |  |  |  | 0.363 |  |  |  | 2B6.55A (NA) (antibody, V domains shown, Humanized variant of 2B6) VH: EVQLVQSGAEVKKPGASVKVSCKASGYTFSDYNMNWVRQAPGQGLESIGDINPKNADTFYNQNFKDRATLTIDKSTSTAYLELSSLRSEDTAVYYCARHYYYGSSYGGFVYWGQGTLVTVSS VL: DIQMTQSPSSLSASVGDRVTITCHASQNINVWLSWYQQKPGKNPKLLIYAASKLHTGVPSRFSGSGSGTDFTLTISSLQPEDFATYYCQQGQSYPLTFGQGTKVEIK
5 | 2.69 | 0.00064 | 238000 | 18 | 120 | 18 | 7.93 | 0.00305 | 385000 | 4 |  |  |  | 4.8e-08 | H4H9660P (antibody, V domains shown) VH: EVQLVESGGGLVQPGGSLRLSCAASGITLSSYGMSWVRQAPGKGLEWVASIFGSGGGPYYADSVKGRFTMSRDNSKNTLYLQMNSLRAEDTAVYYCAKDRYSGSYYGGFDYWGRGTLVTVSS VL: DIQMTQSPSSVSASVGDRVTITCRASQGITSWLAWYQQKPGKAPTLLIYAASSLQTGVPSRFSGSGSGTDFTLTISSLQPEHFATYYCQQANSFPPTFGGGTKVEIK
6 | 5.62 | 0.000556 | 99000 | 21 |  | 10 | 10.4 | 0.00213 | 205000 | 5 |  |  |  |  | H4H9664P (antibody, V domains shown) VH: QVQLVESGGGVVQPGRSLRLSCAASGFTFSSYGLHWVRQSPGKGLEWVALISYDGSNKYYADSVKGRFTISRDNSKNTLYLQMNSLRPEDTAGYFCAKSLYTTSWYGGFDYWGQGTLVTVSS VL: DIQMTQSPSSVSASVGDRVTITCRASQGIRSWLAWYQQKPGKAPNLLIYAASSLQSGVPSRFSGSGSGTDFTLTISSLQPEDFATYYCQQANSFPPTFGPGTKVDIK
7 | 2.83 | 0.00059 | 208000 | 20 |  | 7 | 5.38 | 0.00214 | 398000 | 5 |  |  |  |  | H4H9667P (antibody, V domains shown) VH: EVQLVESGGGLVQPGGSLRLSCAASGFTFSTYSMHWVRQAPGKGLEYVSTINNNGDTTYYADSVKGRFTISRDNSKNTLYLQLGSLRPEDMAVYYCARQTYTSSWYGGFDSWGQGTLVTVSS VL: DIQMTQSPSSVSASVGDRVTITCRASQGITSWLAWYQQKPGKAPKLLIYAASNLQSGVPSRFSGSGSGTDFTLTITSLQPEDFATYYCQQANSLPFTFGPGTKVDIK
8 |  |  |  |  |  |  |  |  |  |  | 0.22 | > 1.5 µg/mL and > 9.9 nM | 0.344 µg/mL and 2.27 nM |  | 10H2.36.F10.30V.54D (antibody, V domains shown, Humanized variant of 10H2) VH: EVQLVESGGGLVQPGGSLRLSCAASGFTFSNYWMNWVRQAPGKGLEWMAEITLKFNDYSTHYAESVKGRFTISRDNSKNTVYLQMNSLRAEDTAVYYCARRNYGNWYINVWGQGTLVTVSS VL: DIVMTQSPDSLAVSLGERATINCRASESVDKFGVSFLNWYQQKPGQPPKLLIFVASSQGSGVPDRFSGSGSGTDFTLTISSLQAEDVAVYYCQQSKDIPYTFGQGTKVEIK
